Results reported in patent publication US20180291096A1 (Janssen / Centocor, published 2018).

T1: recombinant human IL-12 (hrIL-12), produced at Centocor (human, UniProt P29459 23-219; P29460 23-328)
T1 construct: also called IL-12 CNTO
T1 sequence (looked up) 1: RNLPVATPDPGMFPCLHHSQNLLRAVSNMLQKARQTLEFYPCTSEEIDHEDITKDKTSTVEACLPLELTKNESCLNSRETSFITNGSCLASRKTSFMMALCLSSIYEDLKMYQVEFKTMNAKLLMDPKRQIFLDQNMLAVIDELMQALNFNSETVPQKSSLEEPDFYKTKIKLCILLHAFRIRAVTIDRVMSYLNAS
T1 sequence (looked up) 2: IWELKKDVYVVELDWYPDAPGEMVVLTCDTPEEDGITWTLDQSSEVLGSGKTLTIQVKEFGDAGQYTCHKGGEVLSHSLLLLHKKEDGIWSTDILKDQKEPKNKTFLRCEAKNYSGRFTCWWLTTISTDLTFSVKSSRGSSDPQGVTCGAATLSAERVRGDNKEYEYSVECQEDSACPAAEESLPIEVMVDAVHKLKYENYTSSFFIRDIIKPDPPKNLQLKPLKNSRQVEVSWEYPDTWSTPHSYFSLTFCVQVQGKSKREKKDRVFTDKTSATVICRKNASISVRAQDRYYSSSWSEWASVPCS

T2: recombinant human IL-23 (hrIL-23), produced at Centocor (human, UniProt P29460 23-328)
T2 construct: p19-p40 heterodimer; also called rhIL-23; huIL-23
T2 sequence 1: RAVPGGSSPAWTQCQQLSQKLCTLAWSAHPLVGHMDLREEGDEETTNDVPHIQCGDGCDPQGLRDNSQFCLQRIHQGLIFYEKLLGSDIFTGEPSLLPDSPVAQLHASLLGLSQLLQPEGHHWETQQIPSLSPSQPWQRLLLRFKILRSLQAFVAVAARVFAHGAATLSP
T2 sequence 2: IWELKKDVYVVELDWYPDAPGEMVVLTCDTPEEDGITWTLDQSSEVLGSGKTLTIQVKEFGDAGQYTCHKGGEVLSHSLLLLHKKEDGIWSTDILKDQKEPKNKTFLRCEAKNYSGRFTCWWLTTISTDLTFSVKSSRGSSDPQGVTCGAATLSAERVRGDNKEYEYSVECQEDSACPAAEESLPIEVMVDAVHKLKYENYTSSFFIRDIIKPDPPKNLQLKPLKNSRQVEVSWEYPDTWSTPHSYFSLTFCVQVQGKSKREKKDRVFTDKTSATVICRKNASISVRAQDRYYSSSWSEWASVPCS


Columns and labels:
[1] = target: T1, recombinant human IL-12 (hrIL-12), …; test: not told
[2] = target: T2, recombinant human IL-23 (hrIL-23), …; test: IL-23/IL-23R competition assay
[3] = target: T2, recombinant human IL-23 (hrIL-23), …; test: SET
[4] = target: T2, recombinant human IL-23 (hrIL-23), …; test: hrIL-23/hIL-23R competition assay
[5] = target: T2, recombinant human IL-23 (hrIL-23), …; test: Biacore, Fab capture

Row | Binder | binding result [1] | IC50 [2] [nM] | Kd [3] [nM] | IC50 [4] [nM] | Kd [5] [nM]
1 | MOR05042 Fab (Fab, V domains shown, Fab) VH: QVQLVQSGAEVKKPGESLKISCKGSGYSFSNYWIGWVRQMPGKGLEWMGIISPTGSSTWYSPSFQGQVTISADKSISTAYLQWSSLKASDTAMYYCARWYYKPFDVWGQGTLVTVSS VL: DIVLTQPPSVSGAPGQRVTISCTGSSSNIGSGYDVHWYQQLPGTAPKLLIYGNSKRPSGVPDRFSGSKSGTSASLAITGLQSEDEADYYCSSWTPSSVVFGGGTKLTVL | no binding | 0.06 | 0.004 | – | –
2 | MOR05038 Fab (Fab, V domains shown, Fab) VH: QVQLVQSGAEVKKPGSSVKVSCKASGGTFSSNYISWVRQAPGQGLEWMGINAHLGGTWYAQKFQGRVTITADESTSTAYMELSSLRSEDTAVYYCARSKKGMYGGWTYPLMMFDLWGQGTLVTVSS VL: not shown | no binding | 0.17 | 0.038 | – | –

Next, values leading:

Row | binding result [1] | IC50 [2] [nM] | Kd [3] [nM] | IC50 [4] [nM] | Kd [5] [nM] | Binder
3 | – | 1.2 | 1.1 | 0.2 | 7 | MOR04649 Fab (Fab, V domains shown, Fab) VH: QVQLVQSGAEVKKPGESLKISCKGSGYSFSNYWIGWVRQMPGKGLEWMGIIDPSNSYTNYSPSFQGQVTISADKSISTAYLQWSSLKASDTAMYYCARWYYKPFDVWGQGTLVTVSS VL: DIVLTQPPSVSGAPGQRVTISCTGSSSNIGSGYDVHWYQQLPGTAPKLLIYGNSKRPSGVPDRFSGSKSGTSASLAITGLQSEDEADYYCSSWTPSSVVFGGGTKLTVL
4 | no binding | 0.05 | 0.009 | – | – | MOR05045 Fab (Fab, V domains shown, Fab) VH: QVQLVQSGAEVKKPGESLKISCKGSGYSFSNYWIGWVRQMPGKGLEWMGIISPTGSATWYSPSFQGQVTISADKSISTAYLQWSSLKASDTAMYYCARWYYKPFDVWGQGTLVTVSS VL: DIVLTQPPSVSGAPGQRVTISCTGSSSNIGSGYDVHWYQQLPGTAPKLLIYGNSKRPSGVPDRFSGSKSGTSASLAITGLQSEDEADYYCSSWTPSSVVFGGGTKLTVL
5 | – | – | – | 16 | 41 | MOR04217 Fab (Fab, V domains shown, Fab) VH: QVQLVESGGGLVQPGGSLRLSCAASGFTFSSYWITWVRQAPGKGLEWVSYISSSGSSTYYADSVKGRFTISRDNSKNTLYLQMNSLRAEDTAVYYCARGTFWSFGNYFANWGQGTLVTVSS VL: DIVLTQSPATLSLSPGERATLSCRASQSIFYNLAWYQQKPGQAPRLLIYGASNRATGVPARFSGSGSGTDFTLTISSLEPEDFATYYCQQYSSEPVTFGQGTKVEIK
